Columns and labels:
Test in all cases: fluorescence polarisation
[1] = target: 5-FAM labeled HalA2 core peptide (Bacillus halodurans C-125)
[2] = target: fluorescently-labeled, fully-modified HalA2 peptide (Bacillus halodurans C-125)
[3] = target: fluorescein-labeled HalA2 (Bacillus halodurans C-125)
[4] = target: HalM2 (haloduracin lanthipeptide synthetase) (Bacillus halodurans C-125)

| Kd [1] [µM] | Kd [2] [µM] | Kd [3] [µM] | IC50 [4] [µM] | Ki [4] [µM] | Substance |
| --- | --- | --- | --- | --- | --- |
| 85 |  |  |  |  | HalCE2 (HalA2 leader peptide attached to the N-terminus of HalM2 through a (GS)15 linker) (enzyme) |
|  | 10.4 | 1.9 |  |  | HalM2 (haloduracin lanthipeptide synthetase) (enzyme) |
|  |  |  | 5.6 | 5.5 | unlabeled HalA2 leader peptide |
|  |  |  | 1.2 | 1.2 | unlabeled HalA2 peptide |
